Measurements as given in paper PMC9303552 (Angewandte Chemie (International Ed. in English), 2022).

B1: GST-CHIP (carboxyl terminus of Hsp70 interacting protein, full length) (enzyme, human, UniProt Q9UNE7 1-303, looked up)
chain: MKGKEEKEGGARLGAGGGSPEKSPSAQELKEQGNRLFVGRKYPEAAACYGRAITRNPLVAVYYTNRALCYLKMQQHEQALADCRRALELDGQSVKAHFFLGQCQLEMESYDEAIANLQRAYSLAKEQRLNFGDDIPSALRIAKKKRWNSIEERRIHQESELHSYLSRLIAAERERELEECQRNHEGDEDDSHVRAQQACIEAKHDKYMADMDELFSQVDEKRKKRDIPDYLCGKISFELMREPCITPSGITYDRKDIEEHLQRVGHFDPVTRSPLTQEQLIPNLAMKEVIDAFISENGWVEDY

Assays:
[1] = target: T1, Tau 2N4R isoform (full-length Tau) (human, UniProt P10636-8 1-441); assay: NMR titration
[2] = target: B1; assay: NMR titration
[3] = target: T1, Tau 2N4R isoform (full-length Tau); assay: ITC

B1 showed a Kd [1] of 14 µM.

B2: Tau1-152 (domain or fragment, human, UniProt P10636-8 1-152, looked up)
chain: MAEPRQEFEVMEDHAGTYGLGDRKDQGGYTMHQDQEGDTDAGLKESPLQTPTEDGSEEPGSETSDAKSTPTAEDVTAPLVDEGAPGKQAAAQPHTEIPEGTTAEEAGIGDTPSLEDEAAGHVTQARMVSKSKDGTGSDDKKAKGADGKTKIA
B2: binds [2].

B3: isolated TPR domain of CHIP (domain or fragment, human)
chain: EKSPSAQELKEQGNRLFVGRKYPEAAACYGRAITRNPLVAVYYTNRALCYLKMQQHEQALADCRRALELDGQSVKAHFFLGQCQLEMESYDEAIANLQRAYSLAKEQRLNFGDDIPSALRIAKKKRWNSIEERR
With B3 the Kd [3] was 360 µM.
